The record followed here is patent US20110129459A1 (Chugai, published 2011).

As a reminder, the Kd is the constant that tells how readily two partners part at equilibrium. In general, koff refers to a measure of how fast the partners let go of each other. A word on the kon: it is a measure of how fast the partners come together.

Experiment [1] deals with T1, rhNR10 (recombinant human NR10) (human, UniProt Q8NI17 20-519, limits assumed).
T1 construct: also called IL-31 receptor; IL31RA
T1 sequence: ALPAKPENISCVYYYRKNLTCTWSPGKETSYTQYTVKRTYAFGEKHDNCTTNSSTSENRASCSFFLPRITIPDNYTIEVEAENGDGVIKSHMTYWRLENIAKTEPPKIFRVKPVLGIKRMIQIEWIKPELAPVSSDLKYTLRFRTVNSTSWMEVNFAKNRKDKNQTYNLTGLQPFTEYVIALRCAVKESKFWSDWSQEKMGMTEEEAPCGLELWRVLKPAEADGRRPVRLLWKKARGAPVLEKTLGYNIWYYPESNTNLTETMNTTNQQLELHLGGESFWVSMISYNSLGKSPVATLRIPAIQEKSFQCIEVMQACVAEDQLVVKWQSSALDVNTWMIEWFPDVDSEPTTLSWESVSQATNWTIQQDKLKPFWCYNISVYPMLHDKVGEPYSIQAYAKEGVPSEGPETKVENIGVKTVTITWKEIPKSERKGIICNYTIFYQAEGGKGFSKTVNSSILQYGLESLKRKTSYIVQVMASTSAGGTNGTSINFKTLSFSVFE
Description: SPR, Biacore T100; antibody captured on Protein A, rhNR10 as analyte. As for the experimental part:
(§1) Kinetic analysis of the antigen-antibody reaction was carried out using Biacore T100 (GE Healthcare Biosciences). The antigen-antibody interaction was measured by immobilizing rec-Protein A (hereinafter Protein A) (ZYMED) onto a sensor chip, capturing an antibody on the immobilized Protein A, and then reacting the antigen as an analyte. Various concentrations of rhNR10 were used as the antigen. The kinetic parameters, association rate constant kₐ (1/Ms) and dissociation rate constant kd (1/s), were calculated from the sensorgrams obtained by the measurement. Then, KD (M) was determined based on the rate constants. Each parameter was determined using Biacore T100 Evaluation Software version 1.1 (GE Healthcare Biosciences).
(§2) The running buffer used was HBS-EP+. Each antibody was prepared at 0.25 μg/ml, or prepared so that about 100 RU would bind to Protein A. rhNR10 used as an analyte was prepared at 0, 38.5, 77.0, and 154 nM, or at 0, 19.25, and 77.01 nM using HBS-EP+. In the measurement, first, the antibody solution was captured on Protein A, and an analyte solution was reacted at a flow rate of 20 μL/min for three minutes. Then, the solution was switched to HBS-EP+, and the dissociation phase was measured for five minutes. After measurement of the dissociation phase, the sensor chip was regenerated by washing with 10 mM glycine-HCl (pH 1.5). The obtained sensorgrams were kinetically analyzed using the Biacore-specific data analysis software, Biacore T100 Evaluation Software Version 1.1.

In experiment [2] the target is T1, rhNR10 (recombinant human NR10). The description is as above. As for the experimental part:
as §1, §2
The source holds these as a separate data set.

Experiment [3] shares this target. Described as above. How it is done: as §1, §2
The source holds these as a separate data set.

Experiment [4] shares this target. Described as above. How it is done: as §1, §2
The source holds these as a separate data set.

Experiment [5] deals with T2, soluble human FcRn (FcRn extracellular domain / beta2-microglobulin complex) (human, UniProt P55899 24-290; P61769 21-119).
T2 construct: The expression constructs contain the signal regions (FcRn Met1-Leu290; beta2-microglobulin Met1-Met119); also called hFcRn
Description: SPR, Biacore 3000; antibody captured on chip, soluble human FcRn as analyte, steady state affinity, pH 6.0. How it is done:
The binding to human FcRn was assessed using Biacore 3000. An antibody was bound to Protein L or rabbit anti-human IgG Kappa chain antibody immobilized onto a sensor chip, human FcRn was added as an analyte for interaction with the antibody, and the affinity (KD) was calculated from the amount of bound human FcRn. Specifically, Protein L was immobilized onto sensor chip CM5 (BIACORE) by the amine coupling method using 50 mM Na-phosphate buffer (pH 6.0) containing 150 mM NaCl as the running buffer. Then, an antibody was diluted with the running buffer containing 0.02% Tween20, and injected and allowed to bind to the chip. Human FcRn was then injected to assess the binding activity of the antibody to the human FcRn.
The affinity was calculated using BIAevaluation software. The obtained sensorgram was used to calculate the amount of hFcRn bound to the antibody immediately before the end of human FcRn injection. This was fitted by the steady state affinity method to calculate the affinity of human FcRn for the antibody.
(In general: SPR reads the build-up and loss of mass on a sensor chip optically.)

Experiment [6] addresses T1, rhNR10 (recombinant human NR10). The experiment is described as follows: SPR, Biacore T100; antibody captured on Protein A, rhNR10 as analyte. As for the experimental part:
as §1, §2
The source holds these as a separate data set.

Where a chain is given by its changes, count along the chain named. Read-outs that look alike come from different tables or passages of the source.

T2 sequence (P55899 24-290 limits assumed, chain 1 of 2): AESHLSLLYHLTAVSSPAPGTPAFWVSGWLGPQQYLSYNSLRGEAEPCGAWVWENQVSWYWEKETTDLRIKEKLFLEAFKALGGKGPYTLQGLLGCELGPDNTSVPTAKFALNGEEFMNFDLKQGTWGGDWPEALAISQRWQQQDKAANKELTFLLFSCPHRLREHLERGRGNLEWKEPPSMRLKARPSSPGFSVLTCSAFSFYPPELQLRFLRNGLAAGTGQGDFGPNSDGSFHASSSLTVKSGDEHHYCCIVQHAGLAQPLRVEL
T2 sequence (P61769 21-119 limits assumed, chain 2 of 2): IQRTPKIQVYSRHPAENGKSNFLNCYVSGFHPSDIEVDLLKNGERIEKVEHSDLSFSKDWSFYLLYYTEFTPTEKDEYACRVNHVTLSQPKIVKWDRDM

B1: Ha401La402 (Ha401-SKSC / La402) (antibody, V domains shown)
VH: QVQLVQSGAEVKKPGASVKVSCKASGYTFTGYVINWVRQAPGQGLEWMGLINPYNGGTDYNQKFKGRVTITADESTSTAYMELSSLRSEDTAVYYCARDGYDDGPYTMDYWGQGTLVTVSS
VL: DIQMTQSPSSLSASVGDRVTITCQTSENIYRFVAWYQQKPGKAPKLLIYNAKTLAKGVPSRFSGSGSGTDFTLTISSLQPEDFATYYCQHHYDSPLTFGGGTKVEIKR
Turning to B1, in experiment [1], the Kd came to 0.5 nM, the off-rate constant (koff) was determined as 0.00029 s⁻¹ and the kon is 580000 M⁻¹ s⁻¹.

B2: Hp3Lp15 (Hp3-SKSC / Lp15) (antibody, V domains shown)
VH: B1 VH with V33I, I34M, D59S, K63Q, K65Q, G66D
VL: B1 VL with N28D, R31S, V33L, K52Q, L54E, K56Q, D93E
notes: also called Hp3Lp15-SKSC
As to B2, in experiment [2], the Kd was found to be 3.9 nM, the koff was 0.0016 s⁻¹ and the kon turned out to be 420000 M⁻¹ s⁻¹.

B3: H19L12 (H19-M58 / L12) (antibody, V domains shown)
VH: B1 VH with V33A, I34M, Q62P, K63Q, K65Q, G66D
VL: B1 VL with N28D, R31S, K52Q, L54E, K56Q
B3: in experiment [2], the Kd was 5.1 nM, the koff stood at 0.0012 s⁻¹ and the on-rate constant (kon) is 230000 M⁻¹ s⁻¹.

B4: H0L12 (H0-M58 / L12) (antibody, V domains shown)
VH: B1 VH with V33I, I34M, D59S
VL: B1 VL with N28D, R31S, K52Q, L54E, K56Q
For B4, the “fold affinity relative to H0L0” value in experiment [2] is around 2 fold. Moreover, in experiment [3], the dissociation constant (Kd) was 2 nM, the koff amounted to 0.00074 s⁻¹ and the kon was found to be 380000 M⁻¹ s⁻¹.

B5: H17L11 (H17-M58 / L11) (antibody, V domains shown)
VH: B1 VH with I34L, Q62P, K63Q, K65Q, G66D
VL: B1 VL with N28D, K52Q, L54E, K56Q
Regarding B5, in experiment [4], the Kd was found to be 0.62 nM, the koff worked out at 0.00026 s⁻¹ and the kon stood at 430000 M⁻¹ s⁻¹.

B6: H0L17 (H0-M58 / L17) (antibody, V domains shown)
VH: B1 VH with V33I, I34M, D59S
VL: B1 VL with T25A, N28D, R31S, K52Q, L54E, K56Q
Consider B6, for which, in experiment [3], the equilibrium dissociation constant (Kd) came to 2.1 nM, the koff came to 0.00081 s⁻¹ and the kon worked out at 390000 M⁻¹ s⁻¹.

B7: huPM1-M58 (humanized anti-IL-6 receptor antibody with constant region M58) (antibody)
heavy: QVQLQESGPGLVRPSQTLSLTCTVSGYSITSDHAWSWVRQPPGRGLEWIGYISYSGITTYNPSLKSRVTMLRDTSKNQFSLRLSSVTAADTAVYYCARSLARTTAMDYWGQGSLVTVSSASTKGPSVFPLAPSSKSTSGGTAALGCLVKDYFPEPVTVSWNSGALTSGVHTFPAVLQSSGLYSLSSVVTVPSSNFGTQTYTCNVDHKPSNTKVDKTVERKSCVECPPCPAPPVAGPSVFLFPPKPKDTLMISRTPEVTCVVVDVSQEDPEVQFNWYVDGVEVHNAKTKPREEQFNSTFRVVSVLTVVHQDWLNGKEYKCKVSNKGLPAPIEKTISKTKGQPREPQVYTLPPSQEEMTKNQVSLTCLVKGFYPSDIAVEWESNGQPENNYKTTPPMLDSDGSFFLYSKLTVDKSRWQEGNVFSCSVMHEALHNHYTQKSLSLSP
light: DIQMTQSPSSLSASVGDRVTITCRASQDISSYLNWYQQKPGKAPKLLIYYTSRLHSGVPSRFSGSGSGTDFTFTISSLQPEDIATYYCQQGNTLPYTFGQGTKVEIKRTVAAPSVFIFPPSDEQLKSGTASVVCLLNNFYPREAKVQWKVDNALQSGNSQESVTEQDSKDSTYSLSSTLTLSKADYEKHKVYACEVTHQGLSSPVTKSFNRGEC
As for B7, in experiment [5], the affinity, expressed as Kd, was 1170 nM and the “fold binding activity relative to huPM1-IgG1” value is around 1.4 fold.

B8: H0L0-M58 (antibody)
heavy: QVQLVQSGAEVKKPGASVKVSCKASGYTFTGYIMNWVRQAPGQGLEWMGLINPYNGGTSYNQKFKGRVTITADESTSTAYMELSSLRSEDTAVYYCARDGYDDGPYTMDYWGQGTLVTVSSASTKGPSVFPLAPSSKSTSGGTAALGCLVKDYFPEPVTVSWNSGALTSGVHTFPAVLQSSGLYSLSSVVTVPSSNFGTQTYTCNVDHKPSNTKVDKTVERKSCVECPPCPAPPVAGPSVFLFPPKPKDTLMISRTPEVTCVVVDVSQEDPEVQFNWYVDGVEVHNAKTKPREEQFNSTFRVVSVLTVVHQDWLNGKEYKCKVSNKGLPAPIEKTISKTKGQPREPQVYTLPPSQEEMTKNQVSLTCLVKGFYPSDIAVEWESNGQPENNYKTTPPMLDSDGSFFLYSKLTVDKSRWQEGNVFSCSVMHEALHNHYTQKSLSLSP
light: DIQMTQSPSSLSASVGDRVTITCRTSENIYSFLAWYQQKPGKAPKLLIYNAKTLAKGVPSRFSGSGSGTDFTLTISSLQPEDFATYYCQHHYESPLTFGGGTKVEIKRTVAAPSVFIFPPSDEQLKSGTASVVCLLNNFYPREAKVQWKVDNALQSGNSQESVTEQDSKDSTYSLSSTLTLSKADYEKHKVYACEVTHQGLSSPVTKSFNRGEC
notes: also called H0L0 (H chain, H0-M58)
Consider B8, for which the Kd amounted to 4.8 nM in experiment [2]; 4.8 nM in experiment [3]; 4.2 nM in experiment [6]; 4.8 nM in experiment [4]; 910 nM in experiment [5]. Besides, the koff in experiment [2] came to 0.00087 s⁻¹; in experiment [3], 0.00078 s⁻¹; in experiment [6] it was 0.00088 s⁻¹; in experiment [4], 0.00069 s⁻¹. The kon in experiment [2] was determined as 180000 M⁻¹ s⁻¹; in experiment [3], 160000 M⁻¹ s⁻¹; in experiment [6], 210000 M⁻¹ s⁻¹; in experiment [4], 140000 M⁻¹ s⁻¹.

B9: H0L0-IgG1 (antibody)
heavy: not shown
light: B8 light
In experiment [5], B9 came in with a Kd of 1070 nM.
